Results on 1 molecule are retold here after paper PMC4325844 (Molecular Biology of the Cell, 2015).

The target of the test is GST–PAR3-2N (UniProt Q9Z340 252-697). Description: pull-down.
GST–PAR3-2N, sequence (Q9Z340 252-697): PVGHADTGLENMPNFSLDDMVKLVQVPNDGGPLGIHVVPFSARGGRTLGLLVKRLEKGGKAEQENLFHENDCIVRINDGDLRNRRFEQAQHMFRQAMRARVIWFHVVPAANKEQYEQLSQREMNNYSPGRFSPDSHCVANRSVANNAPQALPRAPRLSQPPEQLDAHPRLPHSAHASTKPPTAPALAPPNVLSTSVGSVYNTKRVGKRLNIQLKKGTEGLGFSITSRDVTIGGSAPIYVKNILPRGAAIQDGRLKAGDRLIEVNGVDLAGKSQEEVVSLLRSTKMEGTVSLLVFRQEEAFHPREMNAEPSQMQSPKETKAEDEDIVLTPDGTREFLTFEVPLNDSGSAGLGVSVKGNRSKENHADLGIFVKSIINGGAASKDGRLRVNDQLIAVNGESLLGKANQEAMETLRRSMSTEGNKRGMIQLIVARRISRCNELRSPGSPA

B1: MBP–CLASP2-N2 (domain or fragment, UniProt O75122 310-670, looked up)
chain: SSGSVASLPQSDRSSSSSQESLNRPFSSKWSTANPSTVAGRVSAGSSKASSLPGSLQRSRSDIDVNAAAGAKAHHAAGQSVRSGRLGAGALNAGSYASLEDTSDKLDGTASEDGRVRAKLSAPLAGMGNAKADSRGRSRTKMVSQSQPGSRSGSPGRVLTTTALSTVSSGVQRVLVNSASAQKRSKIPRSQGCSREASPSRLSVARSSRIPRPSVSQGCSREASRESSRDTSPVRSFQPLASRHHSRSTGALYAPEVYGASGPGYGISQSSRLSSSVSAMRVLNTGSDVEEAVADALKKPARRRYESYGMHSDDDANSDASSACSERSYSSRNGSIPTYMRQTEDVAEVLNRCASSNWSER
B1 yielded a Kd of around 6 nM.
